# Data reported in PMC5559640.
# Tested on: Pho7 DBD, Pho7(279-368) (Schizosaccharomyces pombe)
# Assay: EMSA
# Conditions: EMSA: 50 mM Tris-HCl pH 7.4, 10% glycerol, 340 ng poly(dI-dC), 0.6-1 pmol DNA in 10 ul, about 50 mM NaCl and 0.02% Triton X-100 from 2 ul protein diluent …; for binding signal: 27 ng Pho7 DBD, 1 pmol DNA
Sequence,binding signal,further results
CAACAGGGGAATAGTCGCTGCTTGAAACATCCGGAAATAG (double strand) [pho1 site 1 40-bp DNA],,binding signal (fold affinity vs site 2 (N5)) (8.3-66 ng Pho7 DBD): 0.5
CCGGAAATAGTTTTATTCGGAAATTAAAAACAAGTTTATGGCG (double strand) [pho1 site 2 43-bp DNA],,binding signal (fold affinity vs site 1 (N4)) (8.3-66 ng Pho7 DBD): 2
TTTCCTTCGGACAAACAAATCAGT (double strand) [tgp1 24-bp Mut2 (TT to AA)],45 % DNA bound,
TTTCCTTCGGACATTCAAATCAGT (double strand) [tgp1 24-bp WT],81 % DNA bound,
TTTCCTTCGGACATTCTTATCAGT (double strand) [tgp1 24-bp Mut3 (AA to TT)],23 % DNA bound,
